{
  "source": "patent US20120190623",
  "key": {"[1]": {"biological_target": "FVIII mutant L/L 2251/2252 L/S (L2252S) (UniProt P00451)", "sequence (P00451 20-2351 L2271S)": "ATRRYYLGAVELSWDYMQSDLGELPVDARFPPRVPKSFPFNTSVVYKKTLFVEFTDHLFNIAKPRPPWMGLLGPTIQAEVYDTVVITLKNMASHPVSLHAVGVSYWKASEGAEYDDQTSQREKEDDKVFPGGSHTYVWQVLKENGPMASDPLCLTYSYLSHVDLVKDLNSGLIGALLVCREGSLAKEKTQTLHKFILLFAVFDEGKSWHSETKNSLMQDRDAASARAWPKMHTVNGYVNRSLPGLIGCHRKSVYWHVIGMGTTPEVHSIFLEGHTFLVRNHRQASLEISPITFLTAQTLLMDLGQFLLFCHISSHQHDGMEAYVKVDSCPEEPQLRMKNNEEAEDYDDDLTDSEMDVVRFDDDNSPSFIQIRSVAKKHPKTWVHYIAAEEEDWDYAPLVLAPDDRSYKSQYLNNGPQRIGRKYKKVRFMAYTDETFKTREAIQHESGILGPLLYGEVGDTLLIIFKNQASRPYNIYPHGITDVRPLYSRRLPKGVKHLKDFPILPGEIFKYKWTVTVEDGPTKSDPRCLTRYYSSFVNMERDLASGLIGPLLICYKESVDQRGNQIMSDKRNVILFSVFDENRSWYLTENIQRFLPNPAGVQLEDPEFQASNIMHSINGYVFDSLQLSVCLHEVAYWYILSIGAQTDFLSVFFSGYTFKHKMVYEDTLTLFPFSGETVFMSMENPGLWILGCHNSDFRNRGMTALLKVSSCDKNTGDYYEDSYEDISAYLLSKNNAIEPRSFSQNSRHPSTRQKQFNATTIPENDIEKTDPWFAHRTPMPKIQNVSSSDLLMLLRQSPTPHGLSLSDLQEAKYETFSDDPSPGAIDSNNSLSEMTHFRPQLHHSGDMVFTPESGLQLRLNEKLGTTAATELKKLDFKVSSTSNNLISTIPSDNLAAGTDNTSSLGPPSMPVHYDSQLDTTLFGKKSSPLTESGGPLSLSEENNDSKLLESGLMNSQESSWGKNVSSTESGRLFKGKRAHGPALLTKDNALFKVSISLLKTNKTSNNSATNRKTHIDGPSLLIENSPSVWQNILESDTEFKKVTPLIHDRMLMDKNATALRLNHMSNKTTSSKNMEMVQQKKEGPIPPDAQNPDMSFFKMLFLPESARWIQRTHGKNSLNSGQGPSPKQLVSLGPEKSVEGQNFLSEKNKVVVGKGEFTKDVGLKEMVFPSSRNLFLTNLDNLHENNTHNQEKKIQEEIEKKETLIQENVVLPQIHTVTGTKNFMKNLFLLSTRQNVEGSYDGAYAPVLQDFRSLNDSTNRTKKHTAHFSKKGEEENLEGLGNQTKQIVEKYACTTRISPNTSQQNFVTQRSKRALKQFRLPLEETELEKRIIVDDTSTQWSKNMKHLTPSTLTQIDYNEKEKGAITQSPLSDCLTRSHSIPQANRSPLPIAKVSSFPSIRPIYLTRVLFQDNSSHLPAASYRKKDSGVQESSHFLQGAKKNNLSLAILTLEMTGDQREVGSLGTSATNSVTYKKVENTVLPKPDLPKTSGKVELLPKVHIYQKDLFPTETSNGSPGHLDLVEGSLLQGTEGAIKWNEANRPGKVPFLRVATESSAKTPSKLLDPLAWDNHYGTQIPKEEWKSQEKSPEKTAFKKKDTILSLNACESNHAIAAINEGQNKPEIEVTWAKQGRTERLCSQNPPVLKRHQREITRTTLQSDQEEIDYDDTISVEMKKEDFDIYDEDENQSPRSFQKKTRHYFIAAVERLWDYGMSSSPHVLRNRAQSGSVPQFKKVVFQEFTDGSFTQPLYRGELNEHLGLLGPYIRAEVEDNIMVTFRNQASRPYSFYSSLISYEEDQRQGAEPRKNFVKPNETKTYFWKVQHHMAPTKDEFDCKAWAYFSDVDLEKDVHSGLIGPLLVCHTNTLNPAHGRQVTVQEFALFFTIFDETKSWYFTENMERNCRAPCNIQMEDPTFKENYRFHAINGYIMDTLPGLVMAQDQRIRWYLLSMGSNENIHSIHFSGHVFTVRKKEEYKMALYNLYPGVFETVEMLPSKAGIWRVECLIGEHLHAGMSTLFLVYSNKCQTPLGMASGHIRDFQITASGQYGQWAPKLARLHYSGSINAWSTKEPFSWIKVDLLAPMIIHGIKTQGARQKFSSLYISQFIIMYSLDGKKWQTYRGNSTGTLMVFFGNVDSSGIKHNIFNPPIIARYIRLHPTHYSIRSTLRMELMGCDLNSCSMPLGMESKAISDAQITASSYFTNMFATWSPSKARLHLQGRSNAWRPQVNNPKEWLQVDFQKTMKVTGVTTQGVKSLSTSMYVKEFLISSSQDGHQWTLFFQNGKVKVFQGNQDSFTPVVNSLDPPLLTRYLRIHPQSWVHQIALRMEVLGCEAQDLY"}, "[2]": {"biological_target": "FVIII mutant M/F 2199/2200 W/W (UniProt P00451)", "sequence (P00451 other isoform, or with tags, fused parts or gaps mutant)": "as the sequence (P00451 20-2351 L2271S) above, with M2199W, F2200W, S2252L counted along it"}, "[3]": {"biological_target": "FVIII mutant M/F/L 2199/2200/2252 W/W/S (UniProt P00451)", "sequence (P00451 other isoform, or with tags, fused parts or gaps mutant)": "as the sequence (P00451 20-2351 L2271S) above, with M2199W, F2200W counted along it"}},
  "data": [
    {"substance": "factor IXa", "values": [
      {"measurement": "apparent affinity for factor IXa, Xase assay with 15% PS vesicles", "setting": "[1]", "value": "the apparent affinity for factor IXa was reduced 5-fold"},
      {"measurement": "apparent affinity of factor IXa, Xase assay with saturating PL, 1000 µM", "setting": "[1]", "value": "the apparent affinity of factor IXa for the mutants was decreased approximately 4-fold for the three mutants"},
      {"measurement": "apparent affinity for factor IXa, Xase assay with 15% PS vesicles", "setting": "[2]", "value": "the apparent affinity for factor IXa was reduced 5-fold"},
      {"measurement": "apparent affinity of factor IXa, Xase assay with saturating PL, 1000 µM", "setting": "[2]", "value": "the apparent affinity of factor IXa for the mutants was decreased approximately 4-fold for the three mutants"},
      {"measurement": "apparent affinity for factor IXa, Xase assay with 15% PS vesicles", "setting": "[3]", "value": "the apparent affinity for factor IXa was reduced 5-fold"},
      {"measurement": "apparent affinity of factor IXa, Xase assay with saturating PL, 1000 µM", "setting": "[3]", "value": "the apparent affinity of factor IXa for the mutants was decreased approximately 4-fold for the three mutants"}
    ]}
  ]
}
